Experimental data from a protein production outcome set (Wang et al. 2014).

Assay: label from the status in PepcDB records
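Also: failed if final PepcDB status was selected cloned or expressed and not failed if soluble or beyond.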

| Sequence | protein production |
| --- | --- |
| MNSEENTDSIPIDLILDILSRLPSKSIARCRCVSKLWESMIRQSYFTELFLTRSSSRPHLLIAVEQEGEWKFFSLPQPKNYLGKSSLVVAANLHLKFFEDKRPQHGCSYASSLIYFPNMTIRKKGDDHLGVICNPSTGQYGYVILPPLLDFKSVPYGKFLGFDPIDKQFKVLIPIFDFDKHQTDHHILTLGAETVGWRKIQSPLRYLPHSNGTICINGILYYLAKINYAMDKNVLVCFDVRSENFVFLRLNTYCSSTKLVNYKGKLGMINQEYVDDGGFPLKLSVWVLEDVGKEEWSTYVYTLRDDNKVDQVKYNLSVVGVTASGEIVLVKKTQTLKPFYVLYFNPDKNTLLTVEVKGLHRGLYAVHRIYAFVDHVEDLEFNIMKTTYAAKSKFSQEDRF | failed |
| MNSEWIWRLRARLGYGVARQLLGWPWLVKQPRAWQWMQGQFSRMANLGHRDAQAFYGHLLLFRGQGFGAREEGLRLLRLAASAGDGKSAYQLGVQALKGDSRQAPDALAASRHWALAAEAGHPLAARKLAELYRDGGPGLAPDSERAEHYAQRASALGLLEHHHHHH | failed |
| MNSIRSSPAIGENRTVYIGSYDGKLYAFNPDGTLKWSYTTGNQITGSATIGADGTICIGSYDRRLYTINPDGTLKWSYTTGNQIFSSAAIGEDGTIYVGSRDNKLYALNPDGTLKWSYTTGNQIFSSAAIGEDLEHHHHHH | failed |
| MNSIVSTVRGILTLSRSETFDSPRDEAKSDLKVLSVAWNQVCSGFIVGTNHGFNVYSCKPMIKKSISRAPHESGFKVAEMLFLSNLFAFVGNGYNNSEYPPNKVFVWDDYRNCCLSELTFKSEVIAVKLAREHVVVVLKQNIYVYTFNNLKVDRVIETLMNPKGLCCVTHVESKAVLACPGFHPGQVQVHDLRWNVIKFIKAHDSAIACMTLTLDGSLLATASTKGTLIRIFNAVDGTLLQEFRRGVERAEIYNVAISSNLKWVAASSEKGTLHVFRLRPDILSFDPASSSSFIRVILPKYLYENERSFAQFSLPASTKFIVGFGSENTVLLVGIDGSFRRCKFDHADGGQMVELEHKYFFSLQETGNTMVGGV | failed |
| MNSKENLKIVQLSDLHIKKDFNADRLDKVIQKTNEQNPDFIIFSGDLYDNYSQYNENEAVISKLKSLKAKYGKIAIWGNRDYGGGAVKEYANIMAESDFSLLRNENQVFTLDNGKKILFTGLDDALLGNPQFPSLEHHHHHH | not failed |
| MNSLSLFSPSFTDSVFDALDRSLGPNFGVFAPIKNASCGMPSVDIRETEKAYVMEVDLPGYSEKDVEISLKDRLMTISSSKKEEKEDKGAEYIIKERSSRHFMRRFTLPEDINSDEVSAKFENGVLVVNIPRKPDTQPKQIEIKTA | failed |
| MNSMAKKDNLTEELKKHFGFDTFKGNQRAIIENVLAGNDTFVLMPTGGGKSLCYQLPSLMMQGTAIVISPLIALMKNQVDAMRNFSEEDGVAHFINSSLNKSAIDQVKDDIRNGRTKLLYVAPESLTKDENVEFLRQVNISFYAVDEAHCISEWGHDFRPEYRRIRPIINEIGKRPLIALTATATPKVQHDIQKNLGMIDASVFKSSFNRSNLYYEIRPKTANIDREIIKYIKSNEGKSGIIYCLSRKKVEEFADILKANGIKALPYHAGMDSQQRSSNQDAFLMEKADVIVATIAFGMGIDKPDVRYVIHYDIPKSLEGYYQETGRAGRDGGEGQCIAFYAYKDLQKLEKFMQGKPVAEQEIGKQLLLETAAYAETSVCRRKVLLHYFGEEYLEENCGNCDNCLNPKKKVEAKELLSAVLEVVGTLKEKFKAEYIVNMLVGNETSEIQSYKHNELEIFGSGSDEEEKTWNAVIRQALIAGYLAKDIENYGLLKITEKGKEFIKKPVSFKITEDNEFDEEEEEVPVRGGAACAVDPALFSMMKDLRKKLSKRLEVPPFVIFQDPSLEAMATTYPVTLEELQNIPGVGAGKAKRYGKEFIELIKRHVEENEIERPEDLRVRTVANKSKLKVSIIQRIDRKVALDEIAMTNGLEFNELLDEIEAIVYSGTRINIDYFLNDVMDEDHIDDIYEYFKDSETDDLEDAIEELGGDYTEEEIRLVRIKFLSEMAN | failed |
| MNSNRSLLVMGLLLVSFLIFTQWQQDFNPEIQAQKQAQQQSRDVPHATNTANAITEHMTKGKTITVESDVLRLVIDTLGGDVIESDLLAHKASLDSTDPLKLLTTEGLIYTAQSGLVGKNGIDTHIGRAPYQVTQDHFTLAKGQNEIVVPMTFEQDGVMYTKTFTLKRGSYDVAVSFDIQNNSANTIEVQPYGQIKHSLLDSSGNLAMPTYTGGAYSSSETNYKKYSFDEMTKANLNIDTKGGWVALLQHYFVSAWVPNQDASNTLYSRTHNGVATIGYRGPITTVKPNTKTTITSQLWTGPKDQKEMAQAATHLELTVDYGWAWFIAKPLFWLLIFIHSIIGNWGLAIMGVTLVVKSLLYPLTKAQYTSMAKMRMLQPKLQELRERYGDDRQQMSQEMMKLYKQEKVNPMGGCLPLILQMPIFIALYWTFMEAVELRHAPFFGWIQDLSAQDPYYIFPVLMGLSMFLLQKMSPTAVADPTQLKVMTFMPVIFTVFFLWFPSGLVLYWLTSNCITIVQQWLIYRNLEKKGLHTRKK | failed |
| MNSPHMDYALAPRASGPASWLETFLVTALVIGVGLWLAPEDPLQVQGEFPWSVLAPLLLGVRYGFVRGLISASLLVAAFFALRHSGLASYAQVAPSYIVGVLVCGMLVGEVRDLWERRLLRLQMANEYRQYRLDDFTRAHQILRVSHDRLEQRLAGSDQSLRSSLLGLRDRLRAAPNGGDPLSLLAEPVLTLLGQYGSLRVAGLYRVEQGASAAPQLSLLASIGTMGPLDSQDLLVRMCLEREELVSVREELLDSGAQASVSSLQACVPLVDTQGQVLAILAVRQMPFFAFQERTLSLLALLAGHIADLLHPDPQVLQLQSADAQHFTRQLKRSLVDVERHGLSGCLYAFELTQPNDELARLFERSQRGLDLHLSLANARGHELLLVLLPLTSAEGAQGYLARLGKLVHEHFGMSVELAGLGVKVLPYDLESARQRDGLRNYLYNECGLNDQQVAV | failed |
| MNSSESKSLVVIGGGGHASVLVDILRSQQREILAIVSPENISQRRIFSGITHLKNDDDILRFSPDSVNLVNGVGMLPKSGLKRKLNEYFLSLGYTFETVISDSAQVSSFAEIEQGAQVFSGAIIQAGVVIDAHTIINSGVIIEHDCHIGEYNHIAPKATLCGQVTTHSNVYVGANATVIQNITLEQGSIVGAGAIVTKNISSEQICYPSRSVLK | failed |
| MNSSPPPANSANGDTTNNGENGQDLNLNFLDKIRLSAKRDAKEDEGEELPTELNTINSAGGFLVVSPDKLSVKYTNTNLHGHDVGVVQANKPAPIKCLTYYFEIFVKDSGIKGQIAIGFTKESFKMRRQPGWEVNSCGYHGDDGYLYRGQGKGEPFGPKFTKDDAVGGGINYASQEFFFTKNGTIVGKIPKDIRGHLFPTVAVHSQNEEVLVNFGKKKFAFDIKGYEASERNKQQLAIEKISIPPNIGYGLVKTYLLHYGYEETLDAFNLATKNTVPPIHIDQENAIDEDDSSYALKQRKNLRQLVRNGEIDTALAELQKLYPQIVQDDKSVVCFLLHCQKFIELVGKLEEGVNYGRLELAKFVGLTGFQDIVEDCFALLAYEKPEESSVWYFLEDSQRELVADAVNAAILSTNPNKKDVQRSCHLQSHLEKLLRQLTVCCLERRSLNGDQGETFRLRHVLNNNR | failed |
| MNSTEITQNTDVPSHFRSIKTFVLRTGRMTEGQKRNYEAFYQKWCIPYTESPIDFQTLFQNDNPVIIEIGFGMGTATAQIAEDNPDKNYLGIEVFKAGVGKLLGEIEEKKLNNLRIIEHDAIEVLENMINNESVDGFHIFFPDPWQKKRNHKRRLVRRPRTDLLSKKLKDGGYIYMVTDWENYAEDAFEQLSETPNLKSKYEKFAPSQSWRPTTKFEKKGLKKEHVINELIFEKD | failed |
| MNTGMGLIWIAGASGLLAFLTSLLYFFRQDRKFLALSEKLELIAGVGLVFAIFLLAFYLLGVDTQYSYVFQHSSTDLAWHYRFSALWAGQEGSFLIWTGFIFVMLAITRFTGTGKVLRETEIFSIMRSVSLFVASVFLLLLALKNPFSMYYYTGTGVPDVTNWNLFAEPFVVSYGQGMNPLLRNPWMAIHPPLLFLGYAAFTLPFSAAIGGLVLKDSRWSELATGWMRVSWLFLTLGIGFGAFWAYEVLGWGAWYWTWDPVETSSLIPWLTATAYLHAKLRARQGEYGFLLPMLALVSFILVIFSTFVTRSGLWVSVHSWQDFTMEGMIIALFLVVLIGSSAVLLVRKYFSEE | failed |
| MNTIRPVSDLRNNFADISKIVHQSQQPVFLTKNGYGDMVVMSMETFEDMKFESDIYSKLQEAEKQASLTGKRFSSKDVFEEIQKLISELEHHHHHH | not failed |
| MNTLSIYRFKQWLKEGESPLALTLFRIAKSIRHFELPTPRLLNKVLYGLHKTLCTQWQAFTHLIFYVPAFKGRLESYGKRTLLYGGLPFFSGPLTMRIGNDCRISGQTTFSGRTNSDNPTLEVGDNVDICWQTTIAVGNKVIIGNNVRIAGQGFLCGYPGHPIDPTERALGKPDLDSQVGDIILEQDVWLGSRVSIIGNVTVGEGTIVASGSVVTKSLPPFVLAAGNPAKVIKKLDVNASNTIKEEIHYEA | failed |
| MNTLSVLLSLFTVIVVQRVFKKLSISLLSGVIVMILSLKVRNILEIFFWTVSSDSFWSLIVTVFLIYLLSGMMEKSGDYSRFSEEMRTIFSKNVDSFVPALIGLMPMPGGALFTAPIVKNSLPEENSLKLAVKNYWFRHTIEFFWPIYPAVVLVSELSGIHPGKVSLTLFPVFAIAFFLGWFFFNGKQLPCLSKPRSFFNLFPLIPVLGTGVLILLFKVSGWFALLLSTSGYAVFRRRYLLKTLKQVFNKWDVFLVLFFVYIYKVVVEHSGVGEGIAAEFVRWNLSPWILLIFLPLVSGISTGITQAAVGISLPVLMEVFSSKYAVYTYMFAVGGVILSPVHLCVVLSAKFFEVEVFDILKKVFLPLVLTLILGALVLGVIL | failed |
| MNTSEHEREHDHVIEVTDLRRVYGGDFEAVRGITFSVERGELFALLGTNGAGKTSTVELLEGLAAPSGGRVRVLGHDPYEERAAVRPRTGVMLQEGGFPSELTVAETVRMWAGCTSGARPVGEALSLVGLERRPDVRVKQLSGGERRRLDLALALLGRPEVLFLDEPTTGLDAEGRQETWELVRELRDGGTTVLLTTHYLEEAEGLADRLAILHEGRIATAGTPAEVTAAQPSRISFDLPDGYFLGDLPPLADLGVSTHETTGRTVRLRTHELQRTATALLLWAQRAQVELRGLDVRSASLEEAFLRIAREAAGDRPGRPGRTDVSGTTASGKEAVALEHHHHHH | not failed |
| MNTSSSFKALASPPLISTSRPTTKSFPNPRFTSRFSPKPITCMRDSLNLGSNPKAPSPFSLATVSVDAPLGTKTSDKLRILVSEFRSLTEPIDRVKRLLNYAATLAPLDESARISENRVTGCTTQVWLEIKMDEFGRMRFKADSDSEISKGFCSCLIWILDGAKPEEVMGVRSEDLSEMNVGVHGKEQSRVNTWHNVLMSMQKRTMTLVATDVAHQRGQRPPHQHDLLFKYVNGSYMESSKVHDYSISLLPLYYDFII | failed |
| MNTTDRDASHTLLEQVNQALQDNTPLRIRGGNSKAFLGREVTGEPLDTRAHRGIVSYDPTELVITARAGTPLSEVLQALDAAGQMLPCEPPDIGAATLGGVVAAGLSGPRRPWSGSVRDFVLGTRLITGLGKHLRFGGEVMKNVAGYDVSRLLTGSFGCLGVLTEVSLKVLPKPRLCSSIALEMDSARALACLAEWGQQPMPISAASHDGRVLRLRLEGGEGSVAAAHERLGGELIDATYWQQLNEQRLPFFFDPGPLWRVCVPADTGVLDLPGEQLIDWAGAQRWLKSDASGDAIRAMTASVGGHATCYSQGRDDSPFHPLTTPLLRYHQALKTRLDPQGIFNPGRLYREL | failed |
| MNVAILLAAGKGERMSENVPKQFLEIEGRMLFEYPLSTFLKSEAIDGVVIVTRREWFEVVEKRVFHEKVLGIVEGGDTRSQSVRSALEFLEKFSPSYVLVHDSARPFLRKKHVSEVLRRARETGAATLALKNSDALVRVENDRIEYIPRKGVYRILTPQAFSYEILKKAHENGGEWADDTEPVQKLGVKIALVEGDPLCFKVTFKEDLELARIIAREWERIP | not failed |
| MNVDILKQRAKAFDYVFDAIVVTDLQGFIIDWNKGSETLYGYSKEQAIGQPVNMLHVPGDTEHITSEVISAVENQGKWTGEIRMLHKDGHIGWIESMCVPIYGENYQMVGALGINRDITLEHHHHHH | not failed |
